# Measurements reported in paper PMC2756588.
# T1: Bzz1-1, P38822
# T1 sequence (P38822 478-572, looked up): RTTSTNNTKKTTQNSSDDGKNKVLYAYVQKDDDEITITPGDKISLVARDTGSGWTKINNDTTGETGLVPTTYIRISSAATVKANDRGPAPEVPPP
# T2: Cyk3, Q07533
# T2 sequence (Q07533 1-83, looked up): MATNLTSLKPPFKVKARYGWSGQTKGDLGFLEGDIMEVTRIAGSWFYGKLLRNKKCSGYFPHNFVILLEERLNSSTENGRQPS
# T3: Cdc25, P04821
# T3 sequence (P04821 50-136, looked up): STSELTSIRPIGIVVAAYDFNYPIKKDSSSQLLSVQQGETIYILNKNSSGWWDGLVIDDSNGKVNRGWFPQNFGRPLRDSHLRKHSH
# T4: Fus1, P11710
# T4 sequence (P11710 432-512, looked up): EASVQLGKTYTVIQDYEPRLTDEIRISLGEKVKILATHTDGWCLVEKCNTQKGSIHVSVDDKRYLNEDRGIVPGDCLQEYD
# T5: Hse1, P38753
# T5 sequence (P38753 208-285, looked up): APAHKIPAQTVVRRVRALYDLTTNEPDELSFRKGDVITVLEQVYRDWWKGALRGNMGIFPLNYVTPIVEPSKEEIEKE
# T6: Nbp2, Q12163
# T6 sequence (Q12163 103-180, looked up): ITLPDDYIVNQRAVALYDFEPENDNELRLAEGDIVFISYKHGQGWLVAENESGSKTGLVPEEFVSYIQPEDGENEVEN
# T7: Pex13, P80667
# T7 sequence (P80667 295-386, looked up): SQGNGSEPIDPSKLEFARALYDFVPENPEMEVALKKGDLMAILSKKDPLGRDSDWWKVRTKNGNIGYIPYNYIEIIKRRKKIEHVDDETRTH
# T8: Lsb4, P32793
# T8 sequence (P32793 402-468, looked up): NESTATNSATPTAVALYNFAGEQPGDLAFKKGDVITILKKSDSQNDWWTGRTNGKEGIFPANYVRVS
# T9: Sla1-2, P32790
# T9 sequence (P32790 60-140, looked up): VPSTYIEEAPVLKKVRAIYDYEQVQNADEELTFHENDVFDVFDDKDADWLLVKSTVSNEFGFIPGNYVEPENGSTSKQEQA
# T10: Sla1-3, P32790
# T10 sequence (P32790 344-424, looked up): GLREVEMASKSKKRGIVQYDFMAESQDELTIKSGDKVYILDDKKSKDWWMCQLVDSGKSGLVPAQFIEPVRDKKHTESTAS
# T11: Bzz1-2, P38822
# T11 sequence (P38822 568-633, looked up): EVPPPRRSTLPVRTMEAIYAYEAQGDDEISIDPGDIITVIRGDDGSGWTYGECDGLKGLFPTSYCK
# T12: Lsb1, P53281
# T12 sequence (P53281 45-122, looked up): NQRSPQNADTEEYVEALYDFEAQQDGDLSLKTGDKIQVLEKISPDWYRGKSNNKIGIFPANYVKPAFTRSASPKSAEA
# T13: Lsb3, P43603
# T13 sequence (P43603 385-451, looked up): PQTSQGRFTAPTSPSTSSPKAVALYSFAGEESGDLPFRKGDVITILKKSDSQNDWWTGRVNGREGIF
# T14: Bbc1, P47068
# T14 sequence (P47068 1-78, looked up): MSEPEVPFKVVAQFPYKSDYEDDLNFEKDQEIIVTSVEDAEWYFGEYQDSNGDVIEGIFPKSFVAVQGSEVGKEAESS
# T15: Myo5, Q04439
# T15 sequence (Q04439 1072-1160, looked up): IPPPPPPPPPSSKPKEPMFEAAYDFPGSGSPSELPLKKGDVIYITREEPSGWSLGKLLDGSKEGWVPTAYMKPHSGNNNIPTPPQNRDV
# T16: Boi2, P39969
# T16 sequence (P39969 32-116, looked up): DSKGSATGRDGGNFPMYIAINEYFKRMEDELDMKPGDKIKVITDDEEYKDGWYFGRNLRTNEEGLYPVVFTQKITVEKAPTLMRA
# T17: Bud14, P27637
# T17 sequence (P27637 247-328, looked up): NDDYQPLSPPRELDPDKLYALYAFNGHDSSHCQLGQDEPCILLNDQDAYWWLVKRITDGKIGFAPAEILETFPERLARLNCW
# T18: Pin3, Q06449
# T18 sequence (Q06449 53-122, looked up): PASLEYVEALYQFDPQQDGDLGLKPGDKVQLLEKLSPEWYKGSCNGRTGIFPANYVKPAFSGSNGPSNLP
# T19: Boi1, P38041
# T19 sequence (P38041 1-86, looked up): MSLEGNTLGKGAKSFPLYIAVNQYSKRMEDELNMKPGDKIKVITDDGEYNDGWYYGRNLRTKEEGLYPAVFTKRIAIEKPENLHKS
# T20: Abp1, P15891
# T20 sequence (P15891 535-592, looked up): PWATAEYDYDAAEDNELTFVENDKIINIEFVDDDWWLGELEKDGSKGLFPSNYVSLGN
# T21: Hof1, Q05080
# T21 sequence (Q05080 590-669, looked up): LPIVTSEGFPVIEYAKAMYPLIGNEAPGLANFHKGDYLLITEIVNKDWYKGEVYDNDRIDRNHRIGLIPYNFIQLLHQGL
# Columns and labels:
# Assay in all cases: SPOT array
# Bzz1-1, P38822 = target: T1, Bzz1-1, P38822; conditions: median of control spots 4446
# Cyk3, Q07533 = target: T2, Cyk3, Q07533; conditions: median of control spots 1451
# Cdc25, P04821 = target: T3, Cdc25, P04821; conditions: median of control spots 969
# Fus1, P11710 = target: T4, Fus1, P11710; conditions: median of control spots 1200
# Hse1, P38753 = target: T5, Hse1, P38753; conditions: median of control spots 1727
# Nbp2, Q12163 = target: T6, Nbp2, Q12163; conditions: median of control spots 357
# Pex13, P80667 = target: T7, Pex13, P80667; conditions: median of control spots 1341
# Bem1-2, P29366 = conditions: median of control spots 4347
# Lsb4, P32793 = target: T8, Lsb4, P32793; conditions: median of control spots 397
# Bem1-1, P29366 = conditions: median of control spots 4282
# Sla1-2, P32790 = target: T9, Sla1-2, P32790; conditions: median of control spots 712
# Sla1-3, P32790 = target: T10, Sla1-3, P32790; conditions: median of control spots 5475
# Bzz1-2, P38822 = target: T11, Bzz1-2, P38822; conditions: median of control spots 4538
# Lsb1, P53281 = target: T12, Lsb1, P53281; conditions: median of control spots 388
# Lsb3, P43603 = target: T13, Lsb3, P43603; conditions: median of control spots 406
# Bbc1, P47068 = target: T14, Bbc1, P47068; conditions: median of control spots 796
# Myo5, Q04439 = target: T15, Myo5, Q04439; conditions: median of control spots 471
# Sho1, P40073 = conditions: median of control spots 1148
# Boi2, P39969 = target: T16, Boi2, P39969; conditions: median of control spots 1161
# Bud14, P27637 = target: T17, Bud14, P27637; conditions: median of control spots 956
# Myo3, P36006 = conditions: median of control spots 468
# Pin3, Q06449 = target: T18, Pin3, Q06449; conditions: median of control spots 2171
# Boi1, P38041 = target: T19, Boi1, P38041; conditions: median of control spots 1162
# GST = conditions: median of control spots 978
# Abp1, P15891 = target: T20, Abp1, P15891; conditions: median of control spots 935
# Rvs167, P39743 = conditions: median of control spots 2707
# Hof1, Q05080 = target: T21, Hof1, Q05080; conditions: median of control spots 4086
# Bem1-2, P29366, sequence (P29366 139-227): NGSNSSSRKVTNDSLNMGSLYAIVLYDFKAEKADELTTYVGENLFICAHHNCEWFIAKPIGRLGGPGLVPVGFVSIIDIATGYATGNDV
# Rvs167, P39743, sequence (P39743 419-482): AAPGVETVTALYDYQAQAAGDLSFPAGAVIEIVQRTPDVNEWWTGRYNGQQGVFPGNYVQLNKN
# Sho1, P40073, sequence (P40073 287-367): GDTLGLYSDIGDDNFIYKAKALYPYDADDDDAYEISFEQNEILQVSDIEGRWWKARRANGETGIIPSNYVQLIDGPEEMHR
# Bem1-1, P29366, sequence (P29366 55-141): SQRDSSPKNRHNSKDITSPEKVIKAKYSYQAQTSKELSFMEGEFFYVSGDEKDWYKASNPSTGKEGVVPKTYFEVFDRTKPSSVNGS
"SPOT intensity (Bzz1-1, P38822)","SPOT intensity (Cyk3, Q07533)","SPOT intensity (Cdc25, P04821)","SPOT intensity (Fus1, P11710)","SPOT intensity (Hse1, P38753)","SPOT intensity (Nbp2, Q12163)","SPOT intensity (Pex13, P80667)","SPOT intensity (Bem1-2, P29366)","SPOT intensity (Lsb4, P32793)","SPOT intensity (Bem1-1, P29366)","SPOT intensity (Sla1-2, P32790)","SPOT intensity (Sla1-3, P32790)","SPOT intensity (Bzz1-2, P38822)","SPOT intensity (Lsb1, P53281)","SPOT intensity (Lsb3, P43603)","SPOT intensity (Bbc1, P47068)","SPOT intensity (Myo5, Q04439)","SPOT intensity (Sho1, P40073)","SPOT intensity (Boi2, P39969)","SPOT intensity (Bud14, P27637)",other results,Binder
30,0,0,0,539,86,479,458,201,4,1,43,38,266,306,15,33,780,3,0,"SPOT intensity (Myo3, P36006): 121; SPOT intensity (Pin3, Q06449): 5; SPOT intensity (Boi1, P38041): 0; SPOT intensity (GST): 0; SPOT intensity (Abp1, P15891): 692; SPOT intensity (Rvs167, P39743): 12; SPOT intensity (Hof1, Q05080): 3",RPPRPPPKPLHLRTE
36,0,0,0,36,0,144,57,177,0,0,0,1,4,216,5,44,155,0,1,"SPOT intensity (Myo3, P36006): 160; SPOT intensity (Pin3, Q06449): 0; SPOT intensity (Boi1, P38041): 0; SPOT intensity (GST): 0; SPOT intensity (Abp1, P15891): 675; SPOT intensity (Rvs167, P39743): 0; SPOT intensity (Hof1, Q05080): 0",DKSRPPRPPPKPLHL
0,0,0,0,0,0,0,0,0,0,0,0,0,0,0,0,0,0,0,0,"SPOT intensity (Myo3, P36006): 0; SPOT intensity (Pin3, Q06449): 0; SPOT intensity (Boi1, P38041): 0; SPOT intensity (GST): 0; SPOT intensity (Abp1, P15891): 42; SPOT intensity (Rvs167, P39743): 0; SPOT intensity (Hof1, Q05080): 0",ALKQKKIPPPFKPHL
50,0,2,0,20,2,8,0,114,0,0,1,0,7,162,4,10,202,0,0,"SPOT intensity (Myo3, P36006): 104; SPOT intensity (Pin3, Q06449): 0; SPOT intensity (Boi1, P38041): 2; SPOT intensity (GST): 0; SPOT intensity (Abp1, P15891): 339; SPOT intensity (Rvs167, P39743): 0; SPOT intensity (Hof1, Q05080): 0",KDKSRPPRPPPKPLH
